Laboratory results: patent publication US20150253341A1

Molecular target: all six recombinant human Tau isoforms
Experiment: immunoaffinity purification on 13A6 beads, trypsin digestion and LC-MS/MS, with against without purification

B1: mouse monoclonal anti-Tau antibody clone 13A6 (antibody, V domains shown)
VH: EVQLQQSGAELVRPGASVKLPCTASGFNIKDDYMNWVMQRPERGLEWIGWIDPENGDTAYASKFQGKATMTADTSSNTAYLQLSSLTSEDTAVYYCTSGGRFDYWGQGTSLTVSS
VL: DVLMTQTPLSLPVSLGDQASISCRSSQSIVHSNGSTYLEWYLQKPGQSPKLLIYKVSNRFSGVPDRFSGSGSGTDFTLKINRVEAEDLGVYYCFQGSHVPWTFGGGTKLEIK
percent recovery: 60 to 75%
